Results: patent US20200157147A1 (SEOUL NATIONAL UNIVERSITY HOSPITAL, published 2020)

Target: T1, hResistin (human, UniProt Q9HD89 19-108)
T1 construct: Immobilised on the SPR chip; also called human resistin; resistin protein
T1 sequence (looked up): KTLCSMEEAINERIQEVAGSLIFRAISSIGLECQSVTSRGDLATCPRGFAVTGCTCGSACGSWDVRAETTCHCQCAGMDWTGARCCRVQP
Experiment: SPR (Reichert SR7500DC), hResistin immobilised on CMDH chip, peptide injected in PBS
Description: To measure the direct binding of hResistin and VS_peptide (SEQ ID NO: 2), SPR analysis was performed using Reichert SR7500DC system. hResistin (1.8 ug) and hPCSK9 (1.6 ug) proteins were immobilized on the carboxymethyl dextran hydrogel surface sensor chip (CMDH chip, Cat#: 13206066) by using a 10 mM sodium acetate immobilization buffer (pH 5.5 or pH 4.5). VS_peptide (SEQ ID NO: 2) diluted in PBS buffer (pH 7.4) in a dose-dependent manner was injected into the sensor chip (flow rate: 30 μl/min, association time: 3 min) to measure the response unit (RU) for binding strength. After the measurement of RU values for binding strength, PBS buffer (pH 7.4) was allowed to flow over the sensor chip at a rate of 30 μl/min for 3 minutes to measure dissociation RU values of VS_peptide (SEQ ID NO: 2) from hResistin immobilized on the chip. The dissociation equilibrium constant (KD) of VS_peptide (SEQ ID NO: 2) for hResistin was derived using Scrubber2 software (KD=Kd/Kₐ, Kₐ=association rate, Kd=dissociation rate).

Kd: 3.7 mM
B1: VS_peptide (SEQ ID NO: 2) (peptide)
peptide: PPPPGPPPPPVSTSSGSDES
notes: Synthesised by Peptron, Korea; also called peptide VS; Existing peptide
